# Laboratory results from US20160347827A1.
# Key:
# [1] = target: soluble F glycoprotein (sF); assay: SPR, Biacore 3000, mAb captured by anti-Fc on CM5, sF in solution
# [2] = target: full-length wild-type NiV F glycoprotein (Nipah virus) (UniProt Q9IH63); assay: cell-based or functional assay
# [3] = target: full-length wild-type HeV F glycoprotein (Hendra virus) (UniProt O89342); assay: cell-based or functional assay
# UniProt O89342, sequence (O89342 27-546): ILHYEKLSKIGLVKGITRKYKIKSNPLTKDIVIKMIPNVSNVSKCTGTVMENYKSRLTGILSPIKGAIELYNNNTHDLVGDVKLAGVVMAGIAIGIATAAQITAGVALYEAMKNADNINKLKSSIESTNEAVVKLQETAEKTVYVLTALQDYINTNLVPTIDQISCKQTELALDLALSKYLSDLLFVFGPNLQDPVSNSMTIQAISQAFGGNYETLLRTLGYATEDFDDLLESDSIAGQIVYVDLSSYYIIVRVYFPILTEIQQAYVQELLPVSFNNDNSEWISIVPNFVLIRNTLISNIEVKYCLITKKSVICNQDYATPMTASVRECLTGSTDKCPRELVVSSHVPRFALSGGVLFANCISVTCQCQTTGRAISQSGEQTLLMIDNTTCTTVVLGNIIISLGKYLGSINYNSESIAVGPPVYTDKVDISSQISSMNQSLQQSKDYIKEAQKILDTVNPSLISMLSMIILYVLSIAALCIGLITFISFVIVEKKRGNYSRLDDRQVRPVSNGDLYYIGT
# UniProt Q9IH63, sequence (Q9IH63 27-546): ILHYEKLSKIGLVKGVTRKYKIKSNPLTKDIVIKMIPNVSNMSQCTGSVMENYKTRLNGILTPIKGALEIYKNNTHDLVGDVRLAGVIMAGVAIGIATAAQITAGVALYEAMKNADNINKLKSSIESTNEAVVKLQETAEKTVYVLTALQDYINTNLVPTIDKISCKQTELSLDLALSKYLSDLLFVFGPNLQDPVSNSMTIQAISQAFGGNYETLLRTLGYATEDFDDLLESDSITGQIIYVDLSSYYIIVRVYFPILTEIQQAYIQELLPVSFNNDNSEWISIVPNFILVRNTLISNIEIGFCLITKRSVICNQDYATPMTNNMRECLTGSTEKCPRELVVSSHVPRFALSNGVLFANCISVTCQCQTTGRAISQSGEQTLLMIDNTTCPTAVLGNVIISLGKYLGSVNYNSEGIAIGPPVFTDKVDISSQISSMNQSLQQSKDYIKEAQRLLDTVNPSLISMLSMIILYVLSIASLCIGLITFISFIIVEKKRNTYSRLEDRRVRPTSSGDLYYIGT
Binder,Ka [1] [M⁻¹],Kd [1] [nM],koff [1] [s⁻¹],kon [1] [M⁻¹ s⁻¹],"virus neutralization titer, NiV 100 TCID50 (cpe fully inhibited, Vero cells) [2] [µg/mL]","virus neutralization titer, NiV 200 TCID50 (cpe fully inhibited, Vero cells) [2] [µg/mL]","virus neutralization titer, HeV 100 TCID50 (cpe fully inhibited, Vero cells) [3] [µg/mL]","virus neutralization titer, HeV 200 TCID50 (cpe fully inhibited, Vero cells) [3] [µg/mL]"
"murine 5B3 monoclonal antibody (antibody, V domains shown) VH: EVQLVESGGGLVKPGGSLKLSCAASGFTFSSYDMSWVRQTPEKRLEWVAMISSGGSYSYYPDSVKGRFTISRDNAKNTLYLQMSSLRSEDTAMYYCARQGDYAWFAYWGQGTLVTVS VL: DIQMTQSPASQSASLGESVTITCLASQTIGTWLAWYQQKPGKSPQLLIYAATSLADGVPSRFSGSGSGTKFSFKISSLQAEDFVSYYCQQFYSTPFTFGGGTKLEIKR",3.7e+08,2.7,,,,,,
"humanized 5B3.1 IgG1 (antibody, V domains shown) VH: EVQLVESGGGLVKPGGSLRLSCAASGFTFSSYSMSWVRQAPGKGLEWVAMISSGGSYSYYADSVKGRFTISRDNSKNTLYLQMNSLRAEDTAVYYCARQGDYAWFDIWGQGTLVTVS VL: DIQMTQSPSSLSASVGDRVTITCLASQTIGTWLAWYQQKPGKAPKLLIYAATSLADGVPSRFSGSGSGTDFTLTISSLQPEDFATYYCQQFYSTPFTFGGGTKLEIKR",1.6e+07,62,0.0017,27000,> 100,> 100,> 100,> 100
"humanized 5B3 IgG1 (antibody, V domains shown) VH: EVQLVESGGGLVKPGGSLRLSCAASGFTFSSYDMSWVRQAPGKGLEWVAMISSGGSYSYYPDSVKGRFTISRDNSKNTLYLQMNSLRAEDTAVYYCARQGDYAWFAYWGQGTLVTVS VL: DIQMTQSPSSLSASVGDRVTITCLASQTIGTWLAWYQQKPGKAPKLLIYAATSLADGVPSRFSGSGSGTDFTLTISSLQPEDFATYYCQQFYSTPFTFGGGTKLEIKR",7.5e+07,13,0.00033,25000,1.56,3.12,0.78,12.5
